For the assay, the target named is T1, human FSH receptor, stably expressed on CHO K1 cells (CHO FSH-R/CRE-luc cell line) (human, UniProt P23945 18-695).
T1 sequence (looked up): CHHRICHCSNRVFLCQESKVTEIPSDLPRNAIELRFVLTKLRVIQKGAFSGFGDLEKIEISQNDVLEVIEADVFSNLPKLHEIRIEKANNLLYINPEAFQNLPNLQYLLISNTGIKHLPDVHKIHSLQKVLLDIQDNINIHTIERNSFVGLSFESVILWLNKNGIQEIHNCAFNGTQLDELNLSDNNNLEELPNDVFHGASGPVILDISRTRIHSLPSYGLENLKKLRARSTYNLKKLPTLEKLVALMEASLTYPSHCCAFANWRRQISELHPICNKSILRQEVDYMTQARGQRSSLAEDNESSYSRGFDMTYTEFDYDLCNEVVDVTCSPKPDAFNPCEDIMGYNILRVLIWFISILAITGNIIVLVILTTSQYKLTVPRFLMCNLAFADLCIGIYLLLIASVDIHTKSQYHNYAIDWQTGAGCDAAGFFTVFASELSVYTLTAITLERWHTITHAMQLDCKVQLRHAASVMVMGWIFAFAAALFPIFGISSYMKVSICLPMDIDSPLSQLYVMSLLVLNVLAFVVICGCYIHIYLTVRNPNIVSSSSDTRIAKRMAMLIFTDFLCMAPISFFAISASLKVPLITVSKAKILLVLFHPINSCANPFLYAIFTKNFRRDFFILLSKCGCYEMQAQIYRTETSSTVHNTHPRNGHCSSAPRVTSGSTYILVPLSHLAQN
Nature of the assay: cell-based or functional assay.

Results on 1 molecule are retold here after US20030036181A1 (MAXYGEN, published 2003).

B1: FSH1208: variant form of FSH containing two N-linked glycosylations at the N-terminus of the alpha subunit (ligand)
chain 1: not shown
chain 2: CELTNITIAIEKEECRFCISINTTWCAGYCYTRDLVYKDPARPKIQKTCTFKELVYETVRVPGCAHHADSLYTYPVATQCHCGKCDSDSTDCTVRGLGPSYCSFGEMKE
modifications: both asparagine residues of the extension … are glycosylated
For the molecule B1, the “specific activity (in vitro bioactivity in the FSH luciferase assay over FSH content by ELISA), relative to the wildtype reference” value is ~0.33 fold of wildtype FSH.
